Experimental data from the RNAGym collection of RNA variant scans (doi:10.1073/pnas.2313332121).

B1: TPR t1 (parent)
chain: GACCAAUCUGCCCUCAGAGCUCGAGAACAUCUUCGGAUGCAGAGGAGGCAGGCUUCGGUGGCGCGAUAGCGCCAACGUCCUCAACCUCCAAUGCAUCCCACCACAUGAUGAUGCCUGAAGAGCCUUGGUUUUUUG

Variants of: B1
Assay: polymerase ribozyme fitness, log enrichment relative to wild type (log ratio); higher = more active; in vitro selection for triplet polymerase activity
Method in brief: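 PCR was used to build mutant libraries for each subunit of a heterodimeric triplet polymerase ribozyme, which were then transcribed. A single in vitro selection round, in triplicate, used a frozen incubation at −7 °C and recovered extended constructs by gel excision, streptavidin beads and RT-PCR. Fitness is the logarithm of genotype enrichment relative to wild-type enrichment, averaged over replicates with inverse-variance weights. The logarithm is base 2, and after Illumina sequencing only genotypes with ≥10 input reads and ≥1 read per output were kept.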

First: GACCAAUCGGCCCUCAGAGCUCGAGAACAUCUUCGGAUGCAGAGGAGGCAGGCUUCGGUGGCGCGAUAGCGCCAACGUCAUCAACCCCCAAUGCAUCCCACCACAUGAUGAUGUCUGAAGAGCCUUGGUUUUUUG
Second: GACCAAUCGGCCCUCAGAGCUCGAGAACAUCUUCGGAUGCAGAGGAGGCAGGCUUCGGUAGCGCGAUAGCGCCAACGUCCUCAACCUCCCAUGCAUCCCACCACAUGAUGAUGCCUGAAGAGUCUUGGUUUUUUG
The “polymerase ribozyme fitness (log ratio)” value of the first is lower: -4.36 for the first, 0.324 for the second.

Going from GACCAAUCGCACCUCAGAGCUCGAGAACAUCUUCGGAUGCAGAGGAGGCAGGCUUCGGUGGCGCGAUAGCGCCAACGUCCUCAACCUCUAAUGCAUCCCACCUCAUGAAGAUGCCUGAAGAGCCUUGGUUUUUUG to GACCAAUCGGCCCUCAGAGCUCGAGAACAUCUUCGGAUGCAGAGGAGGCAGGCUUCGGUGUCGCGAUAGCGCCAACGUCCUCAACCUCCAAUGCAUCCCACCACAUGAUGAUGCCUAAAGAGCCUUGGUUUUUUG, the “polymerase ribozyme fitness (log ratio)” value rises from -5.83 to 1.58.

Compared with GACCAAUCGGCCCUCAGAGCUCGAGAACAUCUUCGGAUCCAUAGGAGGCAGGCUUCGGUGGCGUGAUAGCGCCAACGUCCUCAACCUCCAAUGCAUCCCACCACAUGAUGAUGCCUGAAGAGCCUUGGUUUUUUG, GACCAAUCGGCCCUCAGAGCUCGAGAACAUCUUCGGAUGCAGAGGAGGCAGGCUUCGGUGGCGCGAUAGCGCCAACGUCCUCAACCUCCAAUGCAUCCCACCACAUGAUGAUGCGUGAAGAGCCUUGGUUUUUUG is higher in “polymerase ribozyme fitness (log ratio)” value: -2 for the first, 1.35 for the second.

Compared with GACCAAUCGGCCCUCAGAGCUCGAGAACAUCUUCGGAUGCAGAGGAGGCAGGCUUCGGUGGCGCGAUAGCGCCAACGUCCUCAACCUCCAAUGCAUCCCACCACAUGAUGAUGCCUGAAGAGGCUUGGUUUUUUG, GACCAAUCGGCCCUCAGAGCUCGAGAACAUCUUCGGAUGCAGAGGAGGCAGGCUUCGGUGGCGCGAUAGCGCCAACGUCCUCAACCUCCAAUGCAUCCCACCACAUGAUGAUGCCUGAAGAGUCUUGGUUUUUUG is lower in “polymerase ribozyme fitness (log ratio)” value: 1.31 for the first, 0.831 for the second.

Compared with GACCAAUCGGCCCUCAGAGCUCGAGAACAUCUUCGGAUGCAGAGGAGGCACGCUUCGGUGUCGCGAUAGCGCCAACGUCCUCAACCUCCAAUGCAUCCCACCACAUGAUGAUGCCUGAAGAGCCUUCGUUUUUUG, GACCAAUCGGCCCUCAGAGCUCGAGAACAUCUUCGGAUGCAGAGGAGGCAGGCUUCGUUGGCGCGAUAGCGCCAACGUCCUCAACCUCCAAUGCAUCCCACCACAUGAUGAAGCCUGAAAAGCCUUGGUCUUUUG is higher in “polymerase ribozyme fitness (log ratio)” value: -3.3 for the first, 0.977 for the second.

Compared with GACCAAUCGGCCCUCAGAGCUCGAGAACAUCUUCGGAUGCAGAGGAGGCAGGCUUCGGUGCCGCGAUAGCGCCAACGUCCUCAACCUCCAAUGCAUCCCACAACAUGAUGAUGCCUGAAGAACCAUGGUUUUUUG, GACCAAUCGGCCCUCAGAGCUCGAGAACAUCUUCGGAUGCAGAGGAGGCAGUCUUCGGUGGCGCGAUAGUGCCAACGUCCUCAACCUGCAAUGCAUCCCACCACAUGAUGAUGCCUGAAGAGACUUGGUUUUUUG is higher in “polymerase ribozyme fitness (log ratio)” value: -4.92 for the first, -0.768 for the second.

Going from GACCAAUCGACCCGCAGAGCUCGAGAACAUCUUCGGAUGCAGAGGGGACAGGCUUCGGUGGCGCGGUAGCGCCAACGUCCUCAACCUCCAAUGCAUCCCACCACAUGAUGAUGCCUGAAGAGCCUUGGUUUUUUG to GACCAAUCGGCCCUCAGAGCUCGAGAACAUCUUCGGAUGCAGAGGAGACAGGCUUCGGUGGCGCGAUAGCGCCAACGUCCUCAACCUCCAAUCCAUCCCACCACAUGAUGAUGCCUGAAGAGCCUUGGUUUUUUG, the “polymerase ribozyme fitness (log ratio)” value rises from -2.94 to -1.01.

First: GACCAAUCGGCCCUCAGAGCUCGAGAACAUCUUCGGAUGCAGAGUAGGCAGGCUUCGGUGGCGCGAUAGCGCCAACGUCCUCAACCUCCAACGCAUCCCACCACAUGAUGAUGCCUGAAGAGCCUUGGGUUUUUG
Second: GACCAAUCGGCCCUCAGAGCUCGAGAACAUCUUCGGAUGCAGAGGAGGCAGGCUUCGGUGGCGCGAUACCGCCAACGUCCUCAACCUCCAAUGCAUCCCACCACUUGAUGAGGCCUGAAGAGCCUUGGUUUUUUG
The “polymerase ribozyme fitness (log ratio)” value of the first is higher: -1.65 for the first, -4.11 for the second.

Compared with GACCAAUCGGCCCUCAGAGCUCGAGAACAUCUUCGGAUGCAGAGGAGGCAGGCUUCGGUGGCGCGAUAGCGCCAACGUCCUCAACCUCCAAUGCAUACCACCACAUGAUGAUGCCUGAAGAGCCUUGGUUUUUUG, GACCAAUCGGCCCUCAGAGCUCGAGAACAUCUUCGUAUGCAGAGGAGGCAGGCUUCUGUGGUGCGAUAGCGCCAACGUCCUCAACCUCCAAUGCAUCCCACCACAUGAUGAUGCCUGAAGAGCCUUGGUUUUUUG is higher in “polymerase ribozyme fitness (log ratio)” value: -4.53 for the first, -1.11 for the second.

Compared with GACCAAUCGGCCCUCAAUGCUCGAGAACAUCUUCGGAUGCAGAGGUGGCAGGCUUCGGUGGCGCGAUAGCGCCAACGUCCUCAGCCACCAAUGCAUCCCACCACAUGAUGACGCCUGAAGAGCCUUCGUUUUUAG, GACCAAUCGGCCCUCAGAGCUCGAGAACAUCUUCGGAUGCAGAGGAGGCAGGCUUCGGUGGCGCAAUAGCGGCAACGUCCUCAACCUCCAAUGCAUCCCACCACAUGAUGAUGCCUGAAGAAGCUUGGGUUUUUG is lower in “polymerase ribozyme fitness (log ratio)” value: -2.66 for the first, -5.67 for the second.

For GACCAAUCGGCCCUCAGAGCUCGAGAACAUCUUCGGAUGCAGAGGAGGCAGGCUUCGGUGGCGCGAUAGCGCCAACGUCCUCAACCUCCAAUGCAUCCAACCACAUGAUGAUGCCUGAAGAGCCUUGGUUUUUUG, the “polymerase ribozyme fitness (log ratio)” value was -5.82.
